The text below walks through data of patent US20230192843A1 (TENEOBIO, published 2023).

Test [1] deals with T1, human MSLN expressed on CHO cells (human, UniProt Q13421 296-598).
T1 construct: whole, on cells; also called CHO-huMSLN
Nature of the test: flow cytometry, antibody supernatant on CHO cells expressing human MSLN. As for the experimental part:
Pelleted CHO cells were resuspended in flow buffer (1X phosphate buffered saline (PBS), 1% bovine serum albumin (BSA), and 0.1% NaN₃) at 1.25 × 10⁶ cells/mL. Antibody containing supernatants were diluted 1:5 in flow buffer, and 40 µL cells plus 10 µL diluted antibody supernatant were incubated for 30 minutes at 4° C. Cells were washed with flow buffer and resuspended in 50 µL phycoerythrin (PE)-conjugated secondary antibody (Southern Biotech #2042-09) diluted in flow buffer to 1.25 µg/mL and incubated for 20 minutes at 4° C. After two wash steps, cells were resuspended in flow buffer and analyzed using a Guava easyCyte 8HT system. Table E1 summarizes the target binding activity of the anti-MSLN single domain antibodies as fold over background MFI signal.

For test [2], the target named is MSLN on HeLa cells (human) (UniProt Q13421). As to the kind of experiment: flow cytometry dose curve on HeLa cells.
Test [3] has as its target T1, human MSLN expressed on CHO cells. Nature of the test: flow cytometry dose curve on CHO cells expressing human MSLN. The method, then: Cell-binding dose curves for example anti-MSLN single domain antibodies described herein were performed using CHO cells expressing human MSLN (FIG. 1A), HeLa cells (FIG. 1B), and CHO-OFFtgt cells (FIG. 1C). The single domain antibodies were tested at a starting concentration of 150 nM, followed by 3-fold serial dilutions for an 8-point dose curve. All washes and dilutions of cells, antibodies, and reagents were performed using flow buffer (1X phosphate buffered saline (PBS), 1% bovine serum albumin (BSA), and 0.1% NaN₃). Cells were pelleted and resuspended at 1 × 10⁶ cells/mL in flow buffer. Then, 50 µL cells were combined with 50 µL of test antibody and incubated 30 minutes at 4° C., followed by two wash steps with flow buffer. Cells were then resuspended in 50 µL PE-conjugated secondary diluted to 1.25 µg/mL (Southern Biotech #2042-09) and incubated for 20 minutes at 4° C. After two wash steps, cells were resuspended in flow buffer and analyzed using a BD Celesta system. PE mean fluorescence intensity was plotted as a fold over background (cells incubated with secondary detection antibody only).
To determine cell binding EC50 values for example anti-MSLN single domain antibodies of the present disclosure, cell binding dose curves were performed on HeLa cells and CHO cells expressing human MSLN. […]

The target of test [4] is T2, recombinant human MSLN (R&D Systems, #3265-MS) (human, UniProt Q13421 296-580, limits assumed).
T2 construct: Bought protein; also called antigen
Nature of the test: BLI (Octet HTX), antibody on AHC sensor, antigen in solution, 1:1 model. The method, then: Table E3 summarizes affinity and epitope bin information for example anti-MSLN single domain antibodies of the present disclosure. The affinity of each single domain antibody to recombinant human MSLN (R&D Systems, #3265-MS) was measured by Bio-layer interferometry (BLI) using an Octet HTX. AHC (Anti-hIgG Fc Capture) sensors were used to immobilize test antibody at 5 µg/mL. After baseline readings, sensors were dipped into antigen solutions (starting at 500 nM followed by a 7-point, 2-fold dilution series). Association and dissociation were measured for 180 and 240 seconds respectively. Data were analyzed with Octet Data Analysis v11.0 HT (ForteBio) using a standard 1:1 binding model. Epitope bins for the single domain antibodies were determined by an in-tandem competition BLI binding experiment using an Octet HTX. The antigen (5 µg/mL) was loaded on the sensor Ni-NTA sensor followed by a baseline in kinetic buffer. The antigen coated sensor was then dipped into a saturating concentration Antibody 1. A second baseline was now set for 300 sec. Then the antigen-antibody 1 complex was dipped into Antibody 2 solution for 180 sec and then allowed to dissociate.

T2 sequence (Q13421 other isoform, or with tags, fused parts or gaps limits assumed): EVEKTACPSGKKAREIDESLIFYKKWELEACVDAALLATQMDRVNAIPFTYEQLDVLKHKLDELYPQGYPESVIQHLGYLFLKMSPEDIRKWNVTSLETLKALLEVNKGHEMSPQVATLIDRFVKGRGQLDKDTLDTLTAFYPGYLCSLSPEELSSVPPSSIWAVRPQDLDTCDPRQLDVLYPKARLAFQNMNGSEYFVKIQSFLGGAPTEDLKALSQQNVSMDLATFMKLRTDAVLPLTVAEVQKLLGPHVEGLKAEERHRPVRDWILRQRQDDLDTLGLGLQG
T1 sequence (Q13421 other isoform, or with tags, fused parts or gaps limits assumed): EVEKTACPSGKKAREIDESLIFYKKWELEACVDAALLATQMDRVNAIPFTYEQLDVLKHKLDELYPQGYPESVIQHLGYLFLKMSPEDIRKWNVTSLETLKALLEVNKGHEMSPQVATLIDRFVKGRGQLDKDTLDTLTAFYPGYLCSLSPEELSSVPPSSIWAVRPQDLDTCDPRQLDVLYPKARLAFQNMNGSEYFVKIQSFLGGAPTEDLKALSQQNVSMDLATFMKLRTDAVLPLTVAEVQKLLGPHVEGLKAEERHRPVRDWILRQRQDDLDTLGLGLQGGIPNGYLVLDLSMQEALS

B1: anti-MSLN single domain antibody clone 394556 (VHH)
VHH: QLQLQESGPGLVKPSETLSLTCTVSGGSISNSYYWGWIRQPPGKGLEWIGSIYHSGNTYYNPSLKSRVTISVDTSKNQFSLKLSSVTAADTAVYYCVTQDGVGATTTEEYWGQGTLVTVSS
notes: Human VH single domain antibody; It was captured on anti-hIgG Fc (AHC) sensors, so it apparently carried a human Fc
Regarding B1, the “fold over background MFI signal” value in test [1] is 540 fold over background. In addition, the half-maximal effective concentration (EC50) in test [2] amounted to 2.5 nM; in test [3], 2.9 nM. For the same molecule, the dissociation constant (Kd) in test [4] is 90.4 nM.

B2: anti-MSLN single domain antibody clone 392026 (VHH)
VHH: QLQLQESGPGLVKPSETLSLTCTVSGGSISNSYYWGWIRQPPGKGLEWIGSIYHSGNTYYNPSLKSRVTISVDTSKNQFSLKLSSVTAADTAVYYCTSQDGVGATTTEEYWGQGTLVTVSS
On to B2, for which the EC50 in test [2] is 9.8 nM.

B3: anti-MSLN single domain antibody clone 394582 (VHH)
VHH: QLQLQESGPGLVKPSETLSLTCTVSGGSISNSYYWGWIRQPPGKGLEWIGSIYHSGNTYYNPSLKSRVTISVDTSKNQFSLKLSSVTAADTAVYYCTTQNGVGATTTEEYWGQGTLVTVSS
notes: Human VH single domain antibody; It was captured on anti-hIgG Fc sensors
As for B3, in test [1], the “fold over background MFI signal” value came to 367 fold over background. In addition, the EC50 in test [2] came to 1.3 nM; in test [3] it was 2.2 nM. The equilibrium dissociation constant (Kd) in test [4] stood at 220 nM.

B4: anti-MSLN single domain antibody clone 394567 (VHH)
VHH: QLQLQESGPGLVKPSETLSLTCTVSGGSISNSYYWGWIRQPPGKGLEWIGSIYYSGSIHYNPSLKSRVTISVDTSKNQFSLKLSSVTAADTAVYYCTSQDGVGATTTEEYWGQGTLVTVSS
notes: Human VH single domain antibody; Tested as antibody-containing supernatant
Turning to B4, the “fold over background MFI signal” value in test [1] was determined as 16.9 fold over background.

B5: anti-MSLN single domain antibody clone 394607 (VHH)
VHH: QLQLQESGPGLVKPSETLSLTCTVSGGSISNSYYWGWIRQPPGKGLEWIGSIYYSGSTYYNPSLKSRVTISVDTSKNQFSLSLNSVTAADTAVYYCATQDGVGATTTEEYWGQGTLVTVSS
notes: as for B4
Take B5: the “fold over background MFI signal” value in test [1] is 141 fold over background.

B6: anti-MSLN single domain antibody clone 394606 (VHH)
VHH: QLQLQESGPGLVKPSETLSLTCTVSGGSISSSYYWGWIRQPPGKGLEWIGSIYHSGNTYYNPSLKSRVTISVDTSKNQFSLKLSSVTAADTAVYYCATQNGVGATTTEEYWGQGTLVTVSS
notes: as for B4
Turning to B6, in test [1], the “fold over background MFI signal” value is 87.3 fold over background.

B7: anti-MSLN single domain antibody clone 394541 (VHH)
VHH: QLQLQESGPGLVKPSETLSLTCTVSGGSISNSYYWGWIRQPPGKGLEWIGSIYHSGNTYYNPSLKSRVTMSVDTSKNQFSLKLSSVTAADTAVYYCTSQDGVGATTTEEYWGQGTLVTVSS
notes: as for B3
With B7, the “fold over background MFI signal” value in test [1] worked out at 422 fold over background. In addition, in test [4], the equilibrium dissociation constant (Kd) worked out at 3800 nM.

B8: anti-MSLN single domain antibody clone 394573 (VHH)
VHH: QLQLQESGPGLVKPSETLSLTCTVSGGSISNSYYWGWIRQPPGKGLEWIGSIYHSGNTYYNPSLKSRVTISVDTSKNQFSLKLSSVTAADTAVYYCATQNGVGATTTEEYWGQGTLVTVSS
notes: as for B4
B8: in test [1], the “fold over background MFI signal” value came to 194 fold over background.

B9: anti-MSLN single domain antibody clone 394610 (VHH)
VHH: QLQLQESGPGLVKPSETLSLTCTVSGGSISSSYYWGWIRQPPGKGLEWIGSIYHSGNTYYNPSLKSRVTISVDTSKNQFSLKLSSVTAADTAVYYCTSQDGVGATTTEEYWGQGTLVTVSS
notes: as for B4
Turning to B9, the “fold over background MFI signal” value in test [1] turned out to be 78 fold over background.
